Experimental findings from patent US20200362047A1 (CRESCENDO BIOLOGICS, published 2020) are described below.

The target of test [1] is T1, human CD137 expressed on the surface of CHO cells (human, UniProt Q07011 24-255).
T1 construct: Also used for the Jurkat reporter cells that express human CD137 (functional rows); also called CHO human CD137 cells; CHO huCD137
Description: FMAT ligand inhibition, CD137 Ligand on CHO human CD137 cells. The procedure: In parallel to the binding assay, periplasmic extracts were tested for their ability to inhibit the interaction of human CD137 ligand protein with CHO human CD137 cells in an FMAT format. Total binding controls containing diluted periplasmic extract sample buffer and non-specific binding controls containing excess non-Fc tagged competitor were set up on each plate for data normalisation. Fluorescence signal was measured using the TTP Mirrorball and the FL2 median mean fluorescence intensity of gated used for the data normalisation. The data was expressed as a % of the total binding control (% control) after subtraction of the background signal determined from the non-specific binding control wells.
The ability of purified Humabody VH to inhibit the binding of CD137 Ligand to CHO human CD137 cells was measured in the FMAT ligand inhibition assay essentially as described in Example 6. VH inhibited the binding of human CD137 Ligand to human CD137.

Test [2] has as its target T2, human CD137-human Fc chimeric protein (Acro Biosystems cat no. 41B-H5258) (human, UniProt Q07011 24-186).
T2 construct: Bought protein; The Octet Protein G and Biacore experiments name no catalogue number; also called human CD137Fc recombinant protein; human CD137-Fc recombinant protein; not shown: human IgG1 Fc tag
Description: BLI (Octet RED384), CD137-Fc on Protein G sensors, 1:1 model. As to the method:
Binding kinetics of purified VH, bivalent VH and trivalent VH molecules were measured on a ForteBio Octet RED 384 instrument. CD137-Fc tagged protein was diluted to 3 μg/ml in kinetics buffer (0.1% BSA, 0.02% Tween, 1×PBS) and coupled to Protein G biosensors (ForteBio cat no. 18-5082) via the Fc tag. VH were serially diluted (typically 1:2 dilution series starting with 50 nM, VH at the highest concentration) and binding to the CD137-Fc-coupled Protein G biosensors measured. Binding kinetics were determined from the (blank subtracted) sensor gram trace using 1:1 binding models and ForteBio Octet Data Analysis 9.0 software. Example kinetic and binding affinity data obtained is shown Table 10 (monovalent VH) and FIG. 1 (bivalent and trivalent molecules).

T1 sequence (Q07011 24-255 limits assumed): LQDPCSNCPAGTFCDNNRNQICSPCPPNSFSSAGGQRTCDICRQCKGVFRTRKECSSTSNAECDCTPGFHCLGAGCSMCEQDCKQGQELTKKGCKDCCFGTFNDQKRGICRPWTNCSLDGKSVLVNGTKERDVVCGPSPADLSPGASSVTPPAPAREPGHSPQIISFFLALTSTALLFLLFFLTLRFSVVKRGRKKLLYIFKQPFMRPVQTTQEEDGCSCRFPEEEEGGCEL

B1: 1.78-6GS-4.1 (bispecific antibody)
chain: QVQLVESGGGLVQPGGSLRLSCAATGFTLSNYWMNWVRQAPGKGLEWVANINQDGSERYYVDSVKGRFTISRDNAKNSLYLQMSSLRAEDTAVYFCARGGEGYGVDHYGLDVSGQGTTVTVSSGGGGSGGGGSGGGGSGGGGSGGGGSGGGGSEVQLVESGGGVVQPGRSLRLSCAASGFSFSGYGMHWVRQAPGKGLEWVAYISYDGSNKYYADSVKGRFTISRDNSKNTLYLQMNSLRAEDTAVYYCAKDPAWGLRLGESSSYDFDIWGQGTMVTVSS
notes: built from its printed name (1.78, 6GS linker, 4.1); not shown: His tag
In turn, B1 showed an IC50 in test [1] of 2.8 nM.

B2: Humabody VH 1.39 (VHH)
VHH: EVQLVESGGGLVQPGGSLRLSCAASGFTFSNYWMNWVRQAPGKELEWVANINQDESEKYYVDSVKGRFTVSRDNAKNSLFLQMNSLRADDTAVYYCARGGFGYGDSHFGMDVWGQGTTVTVSS
notes: human single VH domain
In test [2], B2 gave a Kd of 0.9 nM, a koff of 0.000505 s⁻¹ and a kon of 559000 M⁻¹ s⁻¹.

B3: Humabody VH 1.63 (VHH)
VHH: EVQLVESGGGLVQPGGSLSLSCAASGFTFRSFWMNWVRQAPGKEAEWVANINQDGSEKYYVDSVKGRFTISRDNAKNSLFLQMNSLRAEDTAVYYCARGGPDYGDLHYGMDVWGQGTTVTVSS
notes: human single VH domain
In test [2], B3 gave a Kd of 2.8 nM, a koff of 0.000596 s⁻¹ and a kon of 217000 M⁻¹ s⁻¹.

B4: Humabody VH 2.20 (VHH)
VHH: EVQLVESGGGLVKPGGSLRLSCAASGFTFSDYYMSWIRQAPGKGLEWVSHISSSGSTIDYADSVKGRFTISRDNAKNSLYLQMNSLRAEDTAVYYCAREDPRMPGTFDFDNWGQGTLVTVSS
notes: human single VH domain
Regarding B4, in test [2], the affinity, expressed as Kd, was 1.2 nM; the koff was determined as 0.002 s⁻¹; the kon worked out at 1.64e+06 M⁻¹ s⁻¹. The molecule also had an IC50 in test [1] of 1.7 nM.

B5: 1.1-6GS-1.1 (VHH)
chain: EVQLVESGGGLVQPGGSLRLSCAASGFTFSSHWMTWFRQAPGKGLEWVAHIKEDGSEKYYEDSVEGRFTVSRDNAKNSVYLQMNSLRAEDTAVYYCARGGDGYSDSHFGVDVWGQGTTVTVSSGGGGSGGGGSGGGGSGGGGSGGGGSGGGGSEVQLVESGGGLVQPGGSLRLSCAASGFTFSSHWMTWFRQAPGKGLEWVAHIKEDGSEKYYEDSVEGRFTVSRDNAKNSVYLQMNSLRAEDTAVYYCARGGDGYSDSHFGVDVWGQGTTVTVSS
notes: bivalent tandem VH, monospecific for CD137; also called bivalent Humabody VH 1.1; not shown: His tag
In the case of B5, in test [1], the IC50 is 0.28 nM.

B6: Humabody VH 1.16 (VHH)
VHH: EVQLVESGGGLVQPGGSLRLSCVASGFTFSNYWMMWFRQAPGKGLEWVANINQDGSEKYFVDSVEGRFTISRDNAKNSLYLQMNSLRAEDTAVYYCARGGDGYSSSHYGTDVWGQGTTVTVSS
notes: human single VH domain
On to B6, for which, in test [2], the Kd is 2.4 nM, the koff was 0.00145 s⁻¹ and the kon came to 610000 M⁻¹ s⁻¹.

B7: 2.1-6GS-2.1 (VHH)
chain: EVQLVESGGGLVKPGGSLRVSCAASGFTFSDYYMSWFRQAPGKGLEWVSYISGSGDIIDYADSVKGRFTISRDNAKNSLYLQMNNLRAEDTAVYHCAREDSRLTGTTDFDNWGQGTLVTVSSGGGGSGGGGSGGGGSGGGGSGGGGSGGGGSEVQLVESGGGLVKPGGSLRVSCAASGFTFSDYYMSWFRQAPGKGLEWVSYISGSGDIIDYADSVKGRFTISRDNAKNSLYLQMNNLRAEDTAVYHCAREDSRLTGTTDFDNWGQGTLVTVSS
notes: bivalent tandem VH, monospecific for CD137; also called bivalent Humabody VH 2.1; not shown: His tag
Regarding B7, the IC50 in test [1] amounted to 0.43 nM.

B8: Humabody VH 1.71 (VHH)
VHH: EVQLVESGGGLVQPGGSLRLSCAASGFTFGNYWMIWVRQAPGKELEWLANINQNGSERYYVDSVQGRFTISRDNAKNSLYLQMNSLRAEDTAVYYCARGGADYSNSHYGMDVSGQGTTVTVSS
notes: human single VH domain
In test [2], B8 returned a Kd of 0.091 nM, a koff of 2.84e-05 s⁻¹ and a kon of 313000 M⁻¹ s⁻¹.

B9: 1.1-6GS-1.1-6GS-1.1 (VHH)
chain: EVQLVESGGGLVQPGGSLRLSCAASGFTFSSHWMTWFRQAPGKGLEWVAHIKEDGSEKYYEDSVEGRFTVSRDNAKNSVYLQMNSLRAEDTAVYYCARGGDGYSDSHFGVDVWGQGTTVTVSSGGGGSGGGGSGGGGSGGGGSGGGGSGGGGSEVQLVESGGGLVQPGGSLRLSCAASGFTFSSHWMTWFRQAPGKGLEWVAHIKEDGSEKYYEDSVEGRFTVSRDNAKNSVYLQMNSLRAEDTAVYYCARGGDGYSDSHFGVDVWGQGTTVTVSSGGGGSGGGGSGGGGSGGGGSGGGGSGGGGSEVQLVESGGGLVQPGGSLRLSCAASGFTFSSHWMTWFRQAPGKGLEWVAHIKEDGSEKYYEDSVEGRFTVSRDNAKNSVYLQMNSLRAEDTAVYYCARGGDGYSDSHFGVDVWGQGTTVTVSS
notes: trivalent tandem VH, monospecific for CD137; also called trivalent Humabody VH 1.1; not shown: His tag
Turning to B9, in test [1], the IC50 amounted to 0.2 nM.

B10: 2.1-6GS-2.1-6GS-2.1 (VHH)
chain: EVQLVESGGGLVKPGGSLRVSCAASGFTFSDYYMSWFRQAPGKGLEWVSYISGSGDIIDYADSVKGRFTISRDNAKNSLYLQMNNLRAEDTAVYHCAREDSRLTGTTDFDNWGQGTLVTVSSGGGGSGGGGSGGGGSGGGGSGGGGSGGGGSEVQLVESGGGLVKPGGSLRVSCAASGFTFSDYYMSWFRQAPGKGLEWVSYISGSGDIIDYADSVKGRFTISRDNAKNSLYLQMNNLRAEDTAVYHCAREDSRLTGTTDFDNWGQGTLVTVSSGGGGSGGGGSGGGGSGGGGSGGGGSGGGGSEVQLVESGGGLVKPGGSLRVSCAASGFTFSDYYMSWFRQAPGKGLEWVSYISGSGDIIDYADSVKGRFTISRDNAKNSLYLQMNNLRAEDTAVYHCAREDSRLTGTTDFDNWGQGTLVTVSS
notes: trivalent tandem VH, monospecific for CD137; also called trivalent Humabody VH 2.1; not shown: His tag
With B10, in test [1], half-maximal inhibition (IC50) was put at 0.42 nM.

B11: 4.1-6GS-1.78 (bispecific antibody)
chain: EVQLVESGGGVVQPGRSLRLSCAASGFSFSGYGMHWVRQAPGKGLEWVAYISYDGSNKYYADSVKGRFTISRDNSKNTLYLQMNSLRAEDTAVYYCAKDPAWGLRLGESSSYDFDIWGQGTMVTVSSGGGGSGGGGSGGGGSGGGGSGGGGSGGGGSQVQLVESGGGLVQPGGSLRLSCAATGFTLSNYWMNWVRQAPGKGLEWVANINQDGSERYYVDSVKGRFTISRDNAKNSLYLQMSSLRAEDTAVYFCARGGEGYGVDHYGLDVSGQGTTVTVSS
notes: built from its printed name (4.1, 6GS linker, 1.78); not shown: His tag
With B11, inhibition in test [1] was half-maximal at 3.7 nM (IC50).

B12: Humabody VH 1.75 (VHH)
VHH: QVQLVESGGGLVQPGGSLRLSCAASGFTFSDYYMSWIRQAPGKGLEWVANINQDGSERYYVDSVKGRFTISRDNAKNSLYLQMSSLRAEDTAVYFCARGGEGYGVDHYGLDVSGQGTTVTVSS
notes: human single VH domain
In test [2], B12 showed a Kd of 0.75 nM, a dissociation rate constant (koff) of 0.000353 s⁻¹ and a kon of 474000 M⁻¹ s⁻¹.

B13: Humabody VH 1.111 (VHH)
VHH: EVQLVESGGGLVQPGGSLRLSCAASGFTLSNYWMNWVRQAPGKGLEWVANINQDGSERYYVDSVKGRFTISRDNAKNSLYLQMSSLRAEDTAVYYCARGGEGYGVDHYGLDVSGQGTTVTVSS
notes: human single VH domain
As to B13, inhibition in test [1] was half-maximal at 0.75 nM (IC50).

B14: Humabody VH 1.112 (VHH)
VHH: EVQLVESGGGLVQPGGSLRLSCAATGFTLSNYWMNWVRQAPGKGLEWVANINQDGSERYYVDSVKGRFTISRDNAKNSLYLQMNSLRAEDTAVYYCARGGEGYGVDHYGLDVSGQGTTVTVSS
notes: human single VH domain
B14 showed an IC50 in test [1] of 0.47 nM. This IC50 lies about 1.6-fold lower than the previous one.

B15: Humabody VH 1.81 (VHH)
VHH: QVQLVESGGGLVQPGGSLRLSCAATGFTLSNYWMNWVRQAPGKGLEWVANINQDGSERYYVDSVEGRFTISRDNAKSSLYLQMSNLRAEDTAVYFCARGGEGYGVDHYGLDVSGQGTTVTVSS
notes: human single VH domain
Consider B15, for which, in test [2], the Kd worked out at 0.16 nM, the koff worked out at 0.000171 s⁻¹ and the kon is 1.06e+06 M⁻¹ s⁻¹.

B16: Humabody VH 1.114 (VHH)
VHH: EVQLVESGGGLVQPGGSLRLSCAASGFTLSNYWMNWVRQAPGKGLEWVANINQDESERYYVDSVKGRFTISRDNAKNSLYLQMNSLRAEDTAVYYCARGGEGYGVDHYGLDVSGQGTTVTVSS
notes: human single VH domain
In test [1], B16 registered an IC50 of 0.27 nM. This counts as sub-nanomolar.

The term IC50 denotes the concentration that inhibits the measured activity by half. What is called Kd is the concentration at which binding is half-saturated. A high value points to lower affinity. The koff is the first-order rate constant of dissociation. A lower koff goes with slow dissociation. In general, kon refers to the second-order rate constant of association. High values mean fast association, low ones slow association.
